Source: PMC12581835, “A kinetic ruler controls mRNA poly(A) tail length”

Key:
[1] = biological target: Nab2-FRB (S. cerevisiae | not stated)
Nab2-6xHis [2] = biological target: T1, Nab2-6xHis (Saccharomyces cerevisiae, UniProt P32505 1-525); test: EMSA; Hill coefficient 2.7; multiple shifted bands; switchSENSE: 12.5 mM HEPES-KOH pH 8.0, 75 mM KOAc, 1 mM Mg(OAc)2, 0.025 mM EDTA, 25 C; EMSA: polyadenylation buffer + 5% glycerol, 10 nM RNA, 30 C 1.5 h, native PAGE pH 6.4 at 4 C; details: protein: recombinant; tags: C-terminal 6xHis; label: Atto680; single strand
T1 sequence: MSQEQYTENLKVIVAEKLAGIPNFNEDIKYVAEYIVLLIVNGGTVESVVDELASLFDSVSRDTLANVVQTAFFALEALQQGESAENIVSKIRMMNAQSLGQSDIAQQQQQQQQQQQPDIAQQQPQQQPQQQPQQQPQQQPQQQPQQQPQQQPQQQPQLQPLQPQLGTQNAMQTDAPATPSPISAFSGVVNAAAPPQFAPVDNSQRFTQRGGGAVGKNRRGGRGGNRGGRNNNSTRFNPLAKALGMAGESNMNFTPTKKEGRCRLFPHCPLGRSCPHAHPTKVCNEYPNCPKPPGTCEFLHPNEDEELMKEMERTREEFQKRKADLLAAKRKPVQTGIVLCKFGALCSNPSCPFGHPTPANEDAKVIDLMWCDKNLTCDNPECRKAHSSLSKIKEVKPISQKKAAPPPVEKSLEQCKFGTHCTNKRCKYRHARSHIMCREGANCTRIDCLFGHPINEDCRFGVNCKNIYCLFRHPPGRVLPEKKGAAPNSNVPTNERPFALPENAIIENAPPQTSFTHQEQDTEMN

Nab2-6xHis [3] = biological target: T1, Nab2-6xHis; test: SEC-MALS; bimodal peak; one Nab2 with 1-3 A30; dimer less stable; switchSENSE: 12.5 mM HEPES-KOH pH 8.0, 75 mM KOAc, 1 mM Mg(OAc)2, 0.025 mM EDTA, 25 C; EMSA: polyadenylation buffer + 5% glycerol, 10 nM RNA, 30 C 1.5 h, native PAGE pH 6.4 at 4 C; details: protein: recombinant; tags: C-terminal 6xHis; single strand
SII-Nab2 [4] = biological target: T2, SII-Nab2 (Saccharomyces cerevisiae, UniProt P32505 1-525); test: switchSENSE; kon 2.05e6 +/- 0.14e6 M-1 s-1; Kd only in Fig 2E table; switchSENSE: 12.5 mM HEPES-KOH pH 8.0, 75 mM KOAc, 1 mM Mg(OAc)2, 0.025 mM EDTA, 25 C; EMSA: polyadenylation buffer + 5% glycerol, 10 nM RNA, 30 C 1.5 h, native PAGE pH 6.4 at 4 C; details: protein: recombinant; tags: N-terminal SII; label: red dye on NL-B48; chip-tethered; 68 bp dsDNA (nicked) with 3' RNA overhang 60 nt
T2 sequence: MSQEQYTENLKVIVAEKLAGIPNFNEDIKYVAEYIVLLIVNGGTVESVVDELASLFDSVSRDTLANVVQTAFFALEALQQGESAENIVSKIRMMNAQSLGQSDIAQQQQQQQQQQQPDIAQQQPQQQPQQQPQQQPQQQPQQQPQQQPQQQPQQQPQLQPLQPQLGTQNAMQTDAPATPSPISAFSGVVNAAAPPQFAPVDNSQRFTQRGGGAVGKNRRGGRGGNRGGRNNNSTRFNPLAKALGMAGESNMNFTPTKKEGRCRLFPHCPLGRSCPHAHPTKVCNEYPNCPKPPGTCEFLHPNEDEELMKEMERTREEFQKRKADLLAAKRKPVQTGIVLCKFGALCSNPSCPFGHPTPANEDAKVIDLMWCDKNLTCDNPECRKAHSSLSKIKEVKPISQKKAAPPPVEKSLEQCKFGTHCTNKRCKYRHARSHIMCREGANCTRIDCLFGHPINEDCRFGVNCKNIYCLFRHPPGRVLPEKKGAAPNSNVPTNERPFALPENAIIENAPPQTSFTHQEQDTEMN

SII-Nab2 [5] = biological target: T2, SII-Nab2; test: switchSENSE; kon 1.2e6 +/- 0.17e6 M-1 s-1; Kd only in Fig 2E table; switchSENSE: 12.5 mM HEPES-KOH pH 8.0, 75 mM KOAc, 1 mM Mg(OAc)2, 0.025 mM EDTA, 25 C; EMSA: polyadenylation buffer + 5% glycerol, 10 nM RNA, 30 C 1.5 h, native PAGE pH 6.4 at 4 C; details: protein: recombinant; tags: N-terminal SII; label: red dye on NL-B48; chip-tethered; 68 bp dsDNA (nicked) with 3' RNA overhang 30 nt

Molecule: Nab2-FKBP12
- modal poly(A) tail length of the substrate RNA that escaped early inhibition, 1 µM Nab2 with rapamycin (∼42 As in a reaction without rapamycin) [1]: 36 As

B1: Atto680-A59 (R003) (ssRNA)
RNA: AAAAAAAAAAAAAAAAAAAAAAAAAAAAAAAAAAAAAAAAAAAAAAAAAAAAAAAAAAA
- binding result (Nab2-6xHis [2]): binds

Molecule: AAAAAAAAAAAAAAAAAAAAAAAAAAAAAA (ssRNA, phosphate) [A30 (R002)]
- binding result (Nab2-6xHis [3]): binds

B2: rA60 nanolever (mixed)
DNA 1: ATTGTGCTCGTCAGTAGTGTAAAAAAAAAAAAAAAAAAAAAAAAAAAAAAAAAAAAAAAAAAAAAAAAAAAAAAAAAAAA
DNA 2: ACACTACTGACGAGCACAATATCAGCGTTCGATGCTTCCGACTAATCAGCCATATCAGCTTACGACTA
DNA 3: TAGTCGTAAGCTGATATGGCTGATTAGTCGGAAGCATCGAACGCTGAT
modifications: 3' 60 nt RNA on DNA handle
- binding signal (SII-Nab2 [4]): ~5 fold higher affinity than rA30

B3: rA30 nanolever (mixed)
DNA 1: ATTGTGCTCGTCAGTAGTGTAAAAAAAAAAAAAAAAAAAAAAAAAAAAAA
DNA 2: ACACTACTGACGAGCACAATATCAGCGTTCGATGCTTCCGACTAATCAGCCATATCAGCTTACGACTA
DNA 3: TAGTCGTAAGCTGATATGGCTGATTAGTCGGAAGCATCGAACGCTGAT
modifications: 3' 30 nt RNA on DNA handle
- binding signal (SII-Nab2 [5]): ~0.2 affinity relative to rA60
